# T1: BstYI NN1 (K133N/S172N) (Bacillus stearothermophilus, K133N,S172N)
# T1 chain: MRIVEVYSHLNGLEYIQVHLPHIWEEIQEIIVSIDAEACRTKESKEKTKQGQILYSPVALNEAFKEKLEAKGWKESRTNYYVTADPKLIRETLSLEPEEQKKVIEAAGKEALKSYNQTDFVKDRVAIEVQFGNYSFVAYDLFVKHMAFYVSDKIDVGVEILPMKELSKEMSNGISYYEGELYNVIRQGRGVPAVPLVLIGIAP
# B1: AGATCT site, 60 bp substrate (dsDNA)
# DNA 1: AGATCT
# DNA 2: AGATCT
# Biological target: T1, BstYI NN1 (K133N/S172N)
# Experiment: cleavage_in_vitro; 60 C
# Settings: label: radiolabel
binder,measurement,value
B1,binding signal,7 fold preference over AGATCC/GGATCT

# — patent US20050164186, “Alteration of restriction endonuclease specificity by genetic selection” (published 2005)
